The record followed here is the supplement of paper PMC12636428.

The data set concerns Saccharomyces cerevisiae. Put plainly: transcriptional activation domain activity (GFP:mCherry ratio, weighted mean of sorted bins, harmonized to initial dataset scale) (arbitrary fluorescence ratio units); higher = stronger transcriptional activation. The settings on record: beta-estradiol 1 µM; induction time 4 h. The gist of the method:
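Protein tiles carrying barcodes and fused to an estradiol-inducible synthetic transcription factor were placed at the URA3 locus of yeast diploids with a GFP reporter. Following 4 hours at 30 °C in SC with 1 uM beta-estradiol, cells were sorted into 8 GFP:mCherry bins, barcodes were sequenced, and tiles with fewer than 50 reads were discarded. Activation activity is given as the read-weighted mean of bin median fluorescence, averaged across barcodes and linearly mapped to the initial dataset scale.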

With “SEVKYFWSYYNHVCFLVIPIDDNGLSIFFSCFTGESVEIILSIICVAMTQVLT”, the “transcriptional activation domain activity” value was 35200.

Turning to “SFALCNRIVVGCAILRTGKILKSWHVARVSHFSTFVFNGVIHGSIPNMILTRK”, the “transcriptional activation domain activity” value turned out to be 55100.

With “SFCFILPFTALTLFIFFLSRISCWSAVWWLDDFWLLHICLDISFTFFLFYSFF”, the “transcriptional activation domain activity” value was 62800.

For the sequence “SFCVRHKFMWPLFRTRFIPCPVVSLIVLPTLFIVAYLPQVAFLAIFQGNLAWF”, the “transcriptional activation domain activity” value was 58000.

As for “SFFFFFSYFYLDSLFLVLLPFTLCFYLFLVLWVCWLVGWFVGWLARFALSLSL”, the “transcriptional activation domain activity” value was 55400.

With “SFGDLVSVGPRQYYRPTHSLTIISICEEDNNLPASLVKRFNMLMALLVILTNT”, the “transcriptional activation domain activity” value was found to be 41300.

For the sequence “SFHAFFFLYLPCCLFFYFCIVLVLVLVGYWCLVFFFIVFGSFPPPLLSKYLHL”, the “transcriptional activation domain activity” value came to 46200.

Turning to “SFIHSLLYAFLSFFPHLFISYFLSSFYYLSTHLFLSFFPFLVILFTSCYQNLS”, the “transcriptional activation domain activity” value worked out at 57700.

As for “SFILLFFYSFILLFFYSFILLFFWFFFCLWILIFSLFYSTIIITIKKRKAHTY”, the “transcriptional activation domain activity” value is 59300.

Regarding “SFKPAPAPAAEEAPKTEETPAPAETEAAAEEAKPAEEPKKEEVKEEPKRRSAS”, the “transcriptional activation domain activity” value turned out to be 35500.

For the sequence “SFLEGAQHVVLGPGNFQWRGTKCKSFDAFIFNFIRVPRLEYWKLIRRSNCYRY”, the “transcriptional activation domain activity” value was found to be 52500.

Turning to “SFLIFLLCEYARHVLVTSITVPHYLEYADVWRGNGQMDFRLLIRMFSTDTRRK”, the “transcriptional activation domain activity” value came to 45000.

For “SFLIGGGSAFWLITYGLFYWASRLSLDSLASVVLYLGYLFLLALFDFLITGTI”, the “transcriptional activation domain activity” value is 36700.

Regarding “SFLNDAMSEIHTFGDFNGELDSTFLEFSGTEIKEPNNFITENTNAIETAAASM”, the “transcriptional activation domain activity” value was 113000.

Regarding “SFLSLFWLLCLGRFPIITKLFLGLYAVFYYVSRYKIGICFVVSIRWIWKSGNR”, the “transcriptional activation domain activity” value was found to be 45600.

As for “SFLSPFCRWVGGSFFVIIWSLFFLSLLFSPPCQPGFISWSFWTAGFLVFFFLF”, the “transcriptional activation domain activity” value was 46500.

As for “SFLYWGSAGLFGIYVMSFQDSWWYQMEHLWVKYPHWMMRSELKVYYLLQFSYW”, the “transcriptional activation domain activity” value worked out at 21600.

As for “SFMKVLFLLTRYIPFLSTPLDLYYLLAPNMTFRTCLVTFMISRWLLCAGIVCA”, the “transcriptional activation domain activity” value turned out to be 56200.

As to “SFMWVLVWLLVHIFKKFATITVDSATINRLARAFSSFDTGTVLTKEVILRLWR”, the “transcriptional activation domain activity” value amounted to 52100.

Turning to “SFNDTSFLNMEDPIRNEFSFDNGDRAVTDLPRSAHFLSDTGLEGINFSGLNDS”, the “transcriptional activation domain activity” value came to 55200.

For “SFNLLLYGCVLADIGINLSFSCAVSYSHNRKASDVPHILELLFICMLQCCYIG”, the “transcriptional activation domain activity” value amounted to 60000.

Take “SFPIEGLYCLIKSLLKLKNLSLHGKIWWGDLKMLLPLLSKLDFWGIGELLLFD”: the “transcriptional activation domain activity” value is 67000.

As for “SFPIRHIEDKLRNKGHVKTGILSANDGVPPTPNLLDYDWNNLNITGYEWISSE”, the “transcriptional activation domain activity” value was 93900.

For “SFRYHYGELRLSRLNKIHCITRFTWRDFVRGYMTTSTWYQDFFARNFAWLLAV”, the “transcriptional activation domain activity” value is 55900.

As to “SFSAYFIACCVVIHVTQLVGSPLYLFNKPLYYAYMARTKQSFGVLVTTITQWW”, the “transcriptional activation domain activity” value stood at 68900.

Turning to “SFSILYSRFAGPSIYMGMRNLLILLYVSMAIWIPHLIYFWLSVLSLCIAPFLF”, the “transcriptional activation domain activity” value worked out at 37800.

Regarding “SFSLLALSFFFLHVLFSLIIAPCVWFWFFSWLWFWLDLSSPRTYCIHIWLIHP”, the “transcriptional activation domain activity” value came to 39300.

Regarding “SFSLSVLSFFFFSIWLPLPPLSLSLSLFSPHLFPPLPFTLSLWVQWLYTFSYY”, the “transcriptional activation domain activity” value was determined as 79300.

As for “SFSSIIILLALCLVLLAVFFYFPFFFCLFCPYVLCCHPIFPPTLSQVSILAYY”, the “transcriptional activation domain activity” value worked out at 44700.

Take “SFSSYSSLPSFPSFPYFPSFPFLPFLPFSCVLFLLFLPFLHFLLLPSFPFFYL”: the “transcriptional activation domain activity” value is 70900.

On to “SFSVILFYFIFLISPGQKAAFVFPWSFFFFLFFFFFFFTFFYFRLFSANFVCV”, for which the “transcriptional activation domain activity” value was 45000.

Turning to “SFSVLNLNLGKIENDGNESNEDYLGNEKFYLNEILPDEESKLRWKRVFENSEN”, the “transcriptional activation domain activity” value was 52600.

“SFTLYTIGICGLCDQFGLFCWVHMSLLIIVLSSHFIVNNILEGLIWFWVPASL”: the “transcriptional activation domain activity” value was determined as 31400.

Turning to “SFTNFLMALFGVLLGAIFLSIYTYYTFWRGCRSTILPCISSTWYKAFTILFYL”, the “transcriptional activation domain activity” value turned out to be 47600.

“SFTRRLILWNVCALGIIIVLASRRLLRCILLRKKKFDDTMEFSMLSLIFDLCV”: the “transcriptional activation domain activity” value came out at 71800.

Regarding “SFTSKLNNPQFLGSLDLEILEELEKLISAQEFSRNFTEDVDESLQSEIDLMNY”, the “transcriptional activation domain activity” value worked out at 146000.

As to “SFVAYFSALWRGKQHRMTGYPIYDFFMGAELNPRMFGILDFKMFFEVRMPWYI”, the “transcriptional activation domain activity” value was 67400.

In the case of “SFVAYFSALWRGKQHRMTGYPVYDFFMGAELNPRMFGILDFKMFFEVRMPWYI”, the “transcriptional activation domain activity” value was 51000.

Consider “SFVRDVGFFIVSASFSLVFLWDGKLYFWECVTMVGFYVFYVIFVMAWHWWLGR”, for which the “transcriptional activation domain activity” value turned out to be 43100.

Regarding “SFWNTAFHPVYFNTTDLVLSFPFLFLPSFSSFFSFLFCIVIFTIVQRLYVFIS”, the “transcriptional activation domain activity” value came out at 97000.

In the case of “SGADEFDVGASIEPTFATPRLTRTSETGTSESTSRRPSERSRSRARVLGLPVG”, the “transcriptional activation domain activity” value is 38500.

On to “SGDADEDGNGHGTHCSGTIAGKKYGVAKKAHVYAVKVLRSNGSGSMSDVVKGV”, for which the “transcriptional activation domain activity” value was determined as 9640.

“SGDADEDGNGHGTHCSGTVAGKKYGVAKKAHVYAVKVLRSNGSGTMSDVVKGV”: the “transcriptional activation domain activity” value turned out to be 42000.

On to “SGDADEDGNGHGTHCSGTVAGKKYGVAKKASVYAVKVLRSNGSGSMSDVVKGV”, for which the “transcriptional activation domain activity” value was 45000.

Turning to “SGDAVMKDAVEEAGAAAAEAKPEPEPKPEPKPKRKAPAKKAKIVAAVSAAIAN”, the “transcriptional activation domain activity” value amounted to 26600.

Turning to “SGDPDEDGNGHGTHCSGTVAGKKYGVAKKANVYAVKVLRSNGSGSMSDVVKGV”, the “transcriptional activation domain activity” value came out at 19600.

Regarding “SGEATATPEKSKTPRKRKTKAEGDSADNGDADGSPKKKAGGRKKKADVVKEEM”, the “transcriptional activation domain activity” value turned out to be 23600.

As for “SGFPSVGFNFFLFFSMMQPAMFLVSLFFQSLFFLCLNTCVCFFGFNFFFLVHW”, the “transcriptional activation domain activity” value was 34800.

Take “SGFRDNRKDNRGRGRDRGNRRDNRGNDRNREREDKEKAESKDVKSEDAPVKTE”: the “transcriptional activation domain activity” value came out at 28100.

In the case of “SGGAPRGRGRGRREEKGRGRGRERGGRGRGGDRGRGRGRGRGVGGGSMGGGGG”, the “transcriptional activation domain activity” value came out at 15900.

As for “SGGEGTRRRASGRGRGRGRGRNGRGARAARGDGEKKEGETTEAAAPTSGETPA”, the “transcriptional activation domain activity” value came to 34800.

For the sequence “SGGGRRRDGGGRRAGGRRDGAGGGRGRGDRGGGGGGGGERGERGGRPKKTQEE”, the “transcriptional activation domain activity” value is 50900.

Turning to “SGGKTMVSGSFAGESGRLQGSGPFGRGGGRESREQAYDNGRAKIARLAHGLRL”, the “transcriptional activation domain activity” value worked out at 22400.

As for “SGGKTVLQGAFAGESGRISSGGPFGHGRGKEGQEQAIDNGRQRIARLAHGLRL”, the “transcriptional activation domain activity” value was 23600.

Regarding “SGICRLTFSFSTLFFNPDPSFSFFLSFFFLFFFSFLLLSFLLNLFPFLDFFFF”, the “transcriptional activation domain activity” value amounted to 24000.

Turning to “SGIYSGGLSLWTAFFLGYFKAFLWGSFWGWLAGYFVLLFVICVAWNPFFFLYL”, the “transcriptional activation domain activity” value came out at 57600.

For “SGKLVFGPVSVFNGNVSLRIKKPLKGMTLTVTFNGVAEVDKYLFTFLNISHEV”, the “transcriptional activation domain activity” value amounted to 57800.

Take “SGKQGGRKSGSPHGRRPAIQGARRKGKQSSRKPTGKQTKQSPGKSGARKAFGK”: the “transcriptional activation domain activity” value stood at 42400.

On to “SGLAFRNFWIRRISFAGHLRNSNSALTPSRYFRLMSMAVVQMFWGLVVTSLYT”, for which the “transcriptional activation domain activity” value was 46800.

Take “SGLPIQYLNGSVTYQDGWVWLPGDSTDINATVQDLEDMWDSMVLNFWPLMTLF”: the “transcriptional activation domain activity” value worked out at 66100.

Consider “SGLVIIFFMITRYFTATAEHLDHLSRCKVHNVPPYSYVFWICILGLELLLCSL”, for which the “transcriptional activation domain activity” value was 48600.

For “SGNPPNVVMPPIVCPYSPIIIISYVVTYFFLHHFGGLIGWLQFLSLLLQSLMV”, the “transcriptional activation domain activity” value came out at 51000.

As to “SGNTGENEEDIAFASGLNGGTFDSMLEALPDDLYFTDFVSPFTAAATTSVTTK”, the “transcriptional activation domain activity” value came out at 85100.

On to “SGPRASSGAKAQSLSQRGAKRKAASTARTEGASSSKSSRARGGKARASRVAKT”, for which the “transcriptional activation domain activity” value amounted to 32900.

As for “SGPSRERYFLFVFLGSFFWYFFPGYLFQALSWFSWVTWIWPHDTAIAQLFGYF”, the “transcriptional activation domain activity” value stood at 52100.

On to “SGPSSNDELIEKGRMLVDELSEAGGGIKDGARNNTSSLYLHLVRVSIDKFSHA”, for which the “transcriptional activation domain activity” value is 18900.

Consider “SGQSVVWEAQKLVHKGFLIDAHVVVVFYVMGCFFIYVLARLRCSNPKLIVMQI”, for which the “transcriptional activation domain activity” value was determined as 62800.

As to “SGRTATSAKSHNIISGYREEVEQANLNLSLIDSQVVLLRAWKLLAMELCPFAF”, the “transcriptional activation domain activity” value was 55900.

Turning to “SGSAAGPSSNAAEKETKEKSGQRRRGRRGGGGGGGGGGGDKNAATGTSQGASG”, the “transcriptional activation domain activity” value was found to be 35200.

For the sequence “SGSGAEGASGTEHRRRASTRGRGRGRGRGGRAGRGGRAKTNGEGAELAGEEAG”, the “transcriptional activation domain activity” value is less than 6570.

Turning to “SGSGAEGASGTEHRRRTSTRGRGRGRGRGGRTGRGGRTANDAEGAEGAEADAS”, the “transcriptional activation domain activity” value is 27900.

For “SGSNINNNDNVKLPSNFKNYYDPPMSSLDISMDVPDIFGSLDFFDYDLLFQND”, the “transcriptional activation domain activity” value was found to be 179000.

Turning to “SGSSKPRRAEDGRKSSRRDHSREREGSNGGHHRSRSGRDGSASPKRSSSSRRR”, the “transcriptional activation domain activity” value came out at 16800.

As to “SGTEDEDAAEDKSAAEDESGTEDESGTKDESGTEDEKLVRDIEEVVIVVEVVM”, the “transcriptional activation domain activity” value was 32900.
